From US20250213711A1, “ANTI-CANAG ANTIBODY CONJUGATE” (IKSUDA THERAPEUTICS LIMITED, priority 2022, published 2025)

Key:
[1] = molecular target: CanAg antigen (human) (UniProt P15941); experiment: flow cytometry on CanAg positive Colo205 cells, AF488 anti-human IgG secondary, MFI curve
[2] = molecular target: CanAg antigen (human) (UniProt P15941); experiment: flow cytometry on N87 cells, 20 µg/mL PE conjugate, Quantibrite PE beads
[3] = molecular target: CanAg antigen (human) (UniProt P15941); experiment: flow cytometry on BxPC3 cells, 20 µg/mL PE conjugate, Quantibrite PE beads
[4] = molecular target: CanAg antigen (human) (UniProt P15941); experiment: flow cytometry on HT-29 cells, 20 µg/mL PE conjugate, Quantibrite PE beads
[5] = molecular target: CanAg antigen (human) (UniProt P15941); experiment: flow cytometry on SNU-16 cells, 20 µg/mL PE conjugate, Quantibrite PE beads
[6] = molecular target: CanAg antigen (human) (UniProt P15941); experiment: flow cytometry on Colo205 cells, 20 µg/mL PE conjugate, Quantibrite PE beads
[7] = test system: Colo-205 cells; experiment: Cell Titre-Glo (CTG) in vitro activity assay, Colo-205; assay type: cell-based, human; conditions: 72 h, 10% FBS (FIG. 16)
Text: (§1) The ADC non-binding control was an anti-CD19 ADC (DAR 2.0) composed of the same linker-drug combination as ADC-3.

[8] = test system: Colo-205 xenograft; conditions: CB17 SCID mice, single intravenous dose 2 mg/kg (53 nmol drug/kg), calculation based on day 16
Experimental: Mice were subcutaneously inoculated into the right flank with 5×10^6 Colo-205 cells in 0.2 mL of DPBS mixed 1:1 with BD Matrigel. […] Tumour size was measured thrice weekly in two dimensions using a calliper, and the volume was expressed in mm^3 using the formula: V=0.5 a×b^2 where a and b are the long and short diameters of the tumour, respectively (see FIGS. 17A, 18 A and 19 A). The tumour size was then used for calculations of TGI (%) values (see Table 5). TGI, representing antitumor effectiveness, were calculated using the formula TGI (%)=[1-(Vtreat-t−Vtreat-1)/(Vcontrol-t−Vcontrol-1)]×100, where Vtreat-1 and Vcontrol-1 are the mean volumes of the treated and control groups on grouping day; Vtreat-t and Vcontrol-t are the mean volumes of the treated and control groups on a given day. Animals were euthanized when tumour volumes reached 2000 mm^3. Body weight was also measured thrice weekly as a measure of compound toxicity (see FIGS. 17 B, 18 B and 19 B).

[9] = test system: BxPC3 xenograft; experiment: In vivo efficacy study in BxPC3 xenograft model; design: species or system mice
Experimental: Conjugate doses of 0.4 mg/kg (5.3 nmol of conjugated drug/kg), 1 mg/kg (13 nmol of conjugated drug/kg) for ADC-2 and ADC-3, and 0.2 mg/kg (5.3 nmol of conjugated drug/kg) and 0.5 mg/kg (13 nmol of conjugated drug/kg) for Cantuzumab ravtansine were used.

[10] = test system: NCI-N87 gastric cancer xenograft; experiment: In vivo efficacy study in NCI-N87 xenograft model; design: species or system mice; conditions: single intravenous dose 2 mg/kg (53 nmol drug/kg), day 33
Text: as §1

B1: HC1 + LC1 (antibody, human IgG1, kappa, V domains shown)
VH: QVQLVQSGAEVKKPGASVKVSCKASDYTFTYYGINWVRQAPGQGLEWMGWIDTTTGEPNYAQKLQGRVTFTLDTSASTAYMELRSLRSDDTAVYYCARRGPYNWYFDVWGQGTLVTVSS
VL: DIVMTQTPLSLPVTPGEPASISCRSSKSLLHSNGNTYLYWYLQKPGQSPQLLIYRMSNRASGVPDRFSGSGSGTDFTLKISRVEAEDVGVYYCLQHLEYPFTFGPGTKVDIKR
- EC50 [1]: 0.274 µg/mL

B2: HC2 + LC3 (antibody, human IgG1, kappa, V domains shown)
VH: QVQLVQSGAEVKKPGASVKVSCKASDYTFTYYGMNWVRQAPGQGLEWMGWIDTTTGEPSYAQKFQGRVTFTLDTSASTVYMELSSLRSEDTAVYYCARRGPYNWYFDVWGQGTLVTVSS
VL: DIVMTQTPLSLSVTPGQPASISCKSSKSLLHSNGNTYLYWYLQKPGQSPQLLIYRMSNLFSGVPDRFSGSGSGTDFTLKISRVEAEDVGVYYCLQHLEYPFTFGPGTKVDIKR
- EC50 [1]: 0.354 µg/mL

B3: HC3 + LC3 (antibody, human IgG1, kappa, V domains shown)
VH: QVQLVQSGAEVKKPGASVKVSCKASDYTFTYYGINWVRQATGQGLEWMGWIDTTTGEPTYAQKFQGRVTFTLETSISTAYMELSSLRSEDTAVYYCARRGPYNWYFDVWGAGTLVTVSS
VL: DIVMTQTPLSLSVTPGQPASISCKSSKSLLHSNGNTYLYWYLQKPGQSPQLLIYRMSNLFSGVPDRFSGSGSGTDFTLKISRVEAEDVGVYYCLQHLEYPFTFGPGTKVDIKR
- EC50 [1]: 0.294 µg/mL

B4: HC1 + LC2 (antibody, human IgG1, kappa, V domains shown)
VH: QVQLVQSGAEVKKPGASVKVSCKASDYTFTYYGINWVRQAPGQGLEWMGWIDTTTGEPNYAQKLQGRVTFTLDTSASTAYMELRSLRSDDTAVYYCARRGPYNWYFDVWGQGTLVTVSS
VL: DIVMTQSPLSLPVTPGEPASISCRSSKSLLHSNGNTYLYWYLQKPGQSPQLLIYRMSNLASGVPDRFSGSGSGTDFTLKISRVEAEDVGVYYCLQHLEYPFTFGPGTKVDIKR
- EC50 [1]: 0.268 µg/mL

B5: HC2 + LC1 (antibody, human IgG1, kappa, V domains shown)
VH: QVQLVQSGAEVKKPGASVKVSCKASDYTFTYYGMNWVRQAPGQGLEWMGWIDTTTGEPSYAQKFQGRVTFTLDTSASTVYMELSSLRSEDTAVYYCARRGPYNWYFDVWGQGTLVTVSS
VL: DIVMTQTPLSLPVTPGEPASISCRSSKSLLHSNGNTYLYWYLQKPGQSPQLLIYRMSNRASGVPDRFSGSGSGTDFTLKISRVEAEDVGVYYCLQHLEYPFTFGPGTKVDIKR
- EC50 [1]: 0.351 µg/mL

B6: Phycoerythrin (PE)-conjugated HC1LC1 antibody (antibody, V domains shown)
VH: QVQLVQSGAEVKKPGASVKVSCKASDYTFTYYGINWVRQAPGQGLEWMGWIDTTTGEPNYAQKLQGRVTFTLDTSASTAYMELRSLRSDDTAVYYCARRGPYNWYFDVWGQGTLVTVSS
VL: DIVMTQTPLSLPVTPGEPASISCRSSKSLLHSNGNTYLYWYLQKPGQSPQLLIYRMSNRASGVPDRFSGSGSGTDFTLKISRVEAEDVGVYYCLQHLEYPFTFGPGTKVDIKR
modifications: R-phycoerythrin conjugated by Lightning-Link kit; sites not stated
- PE molecules per cell (PE molecules per cell) [2]: 2570
- PE molecules per cell (PE molecules per cell) [3]: 75300
- PE molecules per cell (PE molecules per cell) [4]: 626000
- PE molecules per cell (PE molecules per cell) [5]: 1.15e+07
- PE molecules per cell (PE molecules per cell) [6]: 2.61e+06

B7: HC3 + LC2 (antibody, human IgG1, kappa, V domains shown)
VH: QVQLVQSGAEVKKPGASVKVSCKASDYTFTYYGINWVRQATGQGLEWMGWIDTTTGEPTYAQKFQGRVTFTLETSISTAYMELSSLRSEDTAVYYCARRGPYNWYFDVWGAGTLVTVSS
VL: DIVMTQSPLSLPVTPGEPASISCRSSKSLLHSNGNTYLYWYLQKPGQSPQLLIYRMSNLASGVPDRFSGSGSGTDFTLKISRVEAEDVGVYYCLQHLEYPFTFGPGTKVDIKR
- EC50 [1]: 0.327 µg/mL

B8: HC3 + LC1 (antibody, human IgG1, kappa, V domains shown)
VH: QVQLVQSGAEVKKPGASVKVSCKASDYTFTYYGINWVRQATGQGLEWMGWIDTTTGEPTYAQKFQGRVTFTLETSISTAYMELSSLRSEDTAVYYCARRGPYNWYFDVWGAGTLVTVSS
VL: DIVMTQTPLSLPVTPGEPASISCRSSKSLLHSNGNTYLYWYLQKPGQSPQLLIYRMSNRASGVPDRFSGSGSGTDFTLKISRVEAEDVGVYYCLQHLEYPFTFGPGTKVDIKR
- EC50 [1]: 0.266 µg/mL

B9: HC1 + LC3 (antibody, human IgG1, kappa, V domains shown)
VH: QVQLVQSGAEVKKPGASVKVSCKASDYTFTYYGINWVRQAPGQGLEWMGWIDTTTGEPNYAQKLQGRVTFTLDTSASTAYMELRSLRSDDTAVYYCARRGPYNWYFDVWGQGTLVTVSS
VL: DIVMTQTPLSLSVTPGQPASISCKSSKSLLHSNGNTYLYWYLQKPGQSPQLLIYRMSNLFSGVPDRFSGSGSGTDFTLKISRVEAEDVGVYYCLQHLEYPFTFGPGTKVDIKR
- EC50 [1]: 0.305 µg/mL

B10: HC2 + LC2 (antibody, human IgG1, kappa, V domains shown)
VH: QVQLVQSGAEVKKPGASVKVSCKASDYTFTYYGMNWVRQAPGQGLEWMGWIDTTTGEPSYAQKFQGRVTFTLDTSASTVYMELSSLRSEDTAVYYCARRGPYNWYFDVWGQGTLVTVSS
VL: DIVMTQSPLSLPVTPGEPASISCRSSKSLLHSNGNTYLYWYLQKPGQSPQLLIYRMSNLASGVPDRFSGSGSGTDFTLKISRVEAEDVGVYYCLQHLEYPFTFGPGTKVDIKR
- EC50 [1]: 0.408 µg/mL

B11: Cantuzumab ravtansine: humanised ADC targeting CanAg: cantuzumab (HuC242) conjugated to the cytotoxic maytansinoid drug ravtansine; DAR 4.0 (conjugate, chains of the INN, looked up)
VH: QVQLVQSGAEVKKPGETVKISCKASDYTFTYYGMNWVKQAPGQGLKWMGWIDTTTGEPTYAQKFQGRIAFSLETSASTAYLQIKSLKSEDTATYFCARRGPYNWYFDVWGQGTTVTVSS
VL: DIVMTQSPLSVPVTPGEPVSISCRSSKSLLHSNGNTYLYWFLQRPGQSPQLLIYRMSNLVSGVPDRFSGSGSGTAFTLRISRVEAEDVGVYYCLQHLEYPFTFGPGTKLELK
modifications: ravtansine maytansinoid payload, DAR 4.0
notes: humanised ADC targeting CanAg: cantuzumab (HuC242) conjugated to the cytotoxic maytansinoid drug ravtansine; DAR 4.0
- cells killed [7]: 75%
- TGI [%] at 15 day [8]: 40%
- anti-tumour response (in words) ([9]; 0.2 mg/kg and 0.5 mg/kg, in comparison to ADC-2 and ADC-3 at the same conjugated drug doses (FIG. 20)): weak anti-tumour response
- time at which tumour started to regrow ([9]; 2 mg/kg (53 nmol drug/kg)): > 32 days
- tumour inhibition (in words) ([9]; 2 mg/kg (53 nmol drug/kg) (FIG. 21 A)): complete tumour inhibition
- TGI [%] at 29 or 32* day ([9]; single intravenous dose 0.2 mg/kg (5.3 nmol drug/kg), day 29): 24.3%
- TGI [%] at 29 or 32* day ([9]; single intravenous dose 0.5 mg/kg (13 nmol drug/kg), day 29): 34.6%
- TGI [%] at 29 or 32* day ([9]; single intravenous dose 2 mg/kg (53 nmol drug/kg), day 32): 104* %
- TGI [%] at 33 day [10]: 43%
